Values joined by “and” are separate entries in the source; they are usually repeats but may differ in a detail not shown here. Equal entries are not always repeated.
B1: Tryptophan synthase alpha chain, P0A877 (parent)
chain: MERYESLFAQLKERKEGAFVPFVTLGDPGIEQSLKIIDTLIEAGADALELGIPFSDPLADGPTIQNATLRAFAAGVTPAQCFEMLALIRQKHPTIPIGLLMYANLVFNKGIDEFYAQCEKVGVDSVLVADVPVEESAPFRQAALRHNVAPIFICPPNADDDLLRQIASYGRGYTYLLSRAGVTGAENRAALPLNHLVAKLKEYNAAPPLQGFGISAPDQVKAAIDAGAAGAISGSAIVKIIEQHINEPEKMLAALKVFVQPMKAATRS

Variants of: B1
Settings: Escherichia coli (strain K12); pH 7.8; 25 °C; Urea; CD; Potassium phosphate 10 mM; transition: 3; reversible: yes (>90%); structure 1WQ5; whole UniProt chain shown

| Variant | ddG of mutation (higher = less stable) | denaturant m value | denaturant midpoint (higher = more stable) | unfolding free energy |
| --- | --- | --- | --- | --- |
| MERYESLFAQLKERKEGAFVPFVTLGDPGIEQSLKIIDTLIEAGADALMLGIPFSDPLADGPTIQNATLRAFAAGVTPAQCFEMLALIRQKHPTIPIGLLMYANLVFNKGIDEFYAQCEKVGVDSVLVADVPVEESAPFRQAALRHNVAPIFICPPNADDDLLRQIASYGRGYTYLLSRAGVTGAENRAALPLNHLVAKLKEYNAAPPLQGFGISAPDQVKAAIDAGAAGAISGSAIVKIIEQHINEPEKMLAALKVFVQPMKAATRS [E49M] | -3.7 kcal/mol and -2 kcal/mol | 2.8 kcal/mol/M and 1.4 kcal/mol/M | 3.33 M and 4.92 M | 9.4 kcal/mol and 7 kcal/mol |
| MERYESLFAQLKERKEGAFVPFVTLGDPGIEQSLKIIDTLIEAGADALELGIPFSDPLADGPTIQNATLRAFAAGVTPAQCFEMLALIRQKHPTIPIGLLMYANLVFNKGIDEFYAQCEKVGVDSVLVADVPVEESAPFRQAALRHNVAPIFICPPNADDDLLRQIASYGRGYTYLLSRAGVTGAENRAALPLNHLVAKLKEYNAAPPLQGFGISAPDQVKAAIDAGAAGAISDSAIVKIIEQHINEPEKMLAALKVFVQPMKAATRS [G234D] | -1.4 kcal/mol and -2 kcal/mol | 2.6 kcal/mol/M and 1.8 kcal/mol/M | 2.78 M and 3.99 M | 7.1 kcal/mol and 7 kcal/mol |
| MERYESLFAQLKERKEGAFVPLVTLGDPGIEQSLKIIDTLIEAGADALELGIPFSDPLADGPTIQNATLRAFAAGVTPAQCFEMLALIRQKHPTIPIGLLMYANLVFNKGIDEFYAQCEKVGVDSVLVADVPVEESAPFRQAALRHNVAPIFICPPNADDDLLRQIASYGRGYTYLLSRAGVTGAENRAALPLNHLVAKLKEYNAAPPLQGFGISAPDQVKAAIDAGAAGAISGSAIVKIIEQHINEPEKMLAALKVFVQPMKAATRS [F22L] | – | 3.1 kcal/mol/M and 1.2 kcal/mol/M | 2.54 M and 3.62 M | 7.9 kcal/mol and 4.2 kcal/mol |
| MERYESLFAQLKERKEGAFVPFVTLGDPGIEQSLKIIDTLIEAGADALELGIPFSDPLADGPTIQNATLRAFAAGVTPAQCFEMLALIRQKHPTIPIGLLMYANLVFNKGIDEFYAQCEKVGVDSVLVADVPVEESAPFRQAALRHNVAPIFICPPNADDDLLRQIASYGRGYTYLLSRAGVTGAENRAALPLNHLVAKLKEYNAAPPLQEFGISAPDQVKAAIDAGAAGAISGSAIVKIIEQHINEPEKMLAALKVFVQPMKAATRS [G211E] | – | 3 kcal/mol/M and 1.5 kcal/mol/M | 2.73 M and 3.72 M | 8.1 kcal/mol and 5.4 kcal/mol |
| MERYESLFAQLKERKEGAFVPFVTLGDPGIEQSLKIIDTLIEAGADALELGIPFSDPLADGPTIQNATLRAFAAGVTPAQCFEMLALIRQKHPTIPIGLLMYANLVFNKGIDEFYAQCEKVGVDSVLVADVPVEESAPFRQAALRHNVAPIFICPPNADDDLLRQIASYGRGYTYLLSRAGVTGAENRAALPLNHLVAKLKEYNAAPPLQGFGISAPDQVKAAIDAGAAGAISKSAIVKIIEQHINEPEKMLAALKVFVQPMKAATRS [G234K] | – | 2.3 kcal/mol/M and 1.2 kcal/mol/M | 2.65 M and 3.81 M | 6.2 kcal/mol and 4.7 kcal/mol |

Source: FireProtDB (doi:10.1021/bi00358a035)
